Measurements taken from PMC9287727, “Structural snapshots of nitrosoglutathione binding and reactivity underlying S-nitrosylation of photosynthetic GAPDH” (Redox Biology, 2022).

Tests used:
[1] = biological target: the molecule itself; experiment: crystal structure; CrGAPA with 1 mM NADP+ or NAD+, hanging drop at 293 K, 1.2-1.6 M (NH4)2SO4, 0.1 M Tris-HCl pH 7.5-8.5; dimer in the asymmetric unit, tetramer by a crystallographic 2-fold axis
[2] = biological target: the molecule itself; experiment: crystal structure; oxidized NADP+-CrGapA, hanging drop at 293 K, 1.2-1.6 M (NH4)2SO4, 0.1 M Bicine pH 9.5; dimer in the asymmetric unit, tetramer by a crystallographic 2-fold axis

Protein	stoichiometry N [1]	stoichiometry N [2]
photosynthetic glyceraldehyde-3-phosphate dehydrogenase from Chlamydomonas reinhardtii (CrGAPA) (enzyme, UniProt P50362 35-374, looked up, Glyceraldehyde-3-phosphate dehydrogenase A, chloroplastic (GAPA), Chlamydomonas reinhardtii; mature protein; Homotetramer of A-type subunits; also called NADP-CrGAPA; NAD-CrGAPA) EKKIRVAINGFGRIGRNFLRCWHGRQNTLLDVVAINDSGGVKQASHLLKYDSTLGTFAADVKIVDDSHISVDGKQIKIVSSRDPLQLPWKEMNIDLVIEGTGVFIDKVGAGKHIQAGASKVLITAPAKDKDIPTFVVGVNEGDYKHEYPIISNASCTTNCLAPFVKVLEQKFGIVKGTMTTTHSYTGDQRLLDASHRDLRRARAAALNIVPTTTGAAKAVSLVLPSLKGKLNGIALRVPTPTVSVVDLVVQVEKKTFAEEVNAAFREAANGPMKGVLHVEDAPLVSIDFKCTDQSTSIDASLTMVMGDDMVKVVAWYDNEWGYSQRVVDLAEVTAKKWVA	4	–
oxidized NADP+-CrGAPA (catalytic Cys149 oxidized to sulphinate/sulphonate) (enzyme, Chlamydomonas reinhardtii, UniProt P50362 35-374, looked up, Cys149 oxidized to sulphinate/sulphonate (-SO2-/-SO3-), Glyceraldehyde-3-phosphate dehydrogenase A, chloroplastic (GAPA), Chlamydomonas reinhardtii; mature protein; Same construct as m1; Cys149 found oxidized in crystals grown in 0.1 M Bicine pH 9.5 with NADP+) EKKIRVAINGFGRIGRNFLRCWHGRQNTLLDVVAINDSGGVKQASHLLKYDSTLGTFAADVKIVDDSHISVDGKQIKIVSSRDPLQLPWKEMNIDLVIEGTGVFIDKVGAGKHIQAGASKVLITAPAKDKDIPTFVVGVNEGDYKHEYPIISNASCTTNCLAPFVKVLEQKFGIVKGTMTTTHSYTGDQRLLDASHRDLRRARAAALNIVPTTTGAAKAVSLVLPSLKGKLNGIALRVPTPTVSVVDLVVQVEKKTFAEEVNAAFREAANGPMKGVLHVEDAPLVSIDFKCTDQSTSIDASLTMVMGDDMVKVVAWYDNEWGYSQRVVDLAEVTAKKWVA	–	4
